The record followed here is PMC4186791.

This test addresses UbxIVa Pro4 (Drosophila melanogaster). Description: two-hybrid; LexA-Ubx variant (pLexA) and B42-partner (pB42) co-transformed into S. cerevisiae EGY48 carrying p8op-LacZ; blue/white colonies on X-gal and liquid β-galactosidase (ONPG) assay after galactose induction at 30°C, reported in Miller units.

B1: Armadillo (natural protein)
chain: MSYMPAQNRTMSHNNQYNPPDLPPMVSAKEQTLMWQQNSYLGDSGIHSGAVTQVPSLSGKEDEEMEGDPLMFDLDTGFPQNFTQDQVDDMNQQLSQTRSQRVRAAMFPETLEEGIEIPSTQFDPQQPTAVQRLSEPSQMLKHAVVNLINYQDDAELATRAIPELIKLLNDEDQVVVSQAAMMVHQLSKKEASRHAIMNSPQMVAALVRAISNSNDLESTKAAVGTLHNLSHHRQGLLAIFKSGGIPALVKLLSSPVESVLFYAITTLHNLLLHQDGSKMAVRLAGGLQKMVTLLQRNNVKFLAIVTDCLQILAYGNQESKLIILASGGPNELVRIMRSYDYEKLLWTTSRVLKVLSVCSSNKPAIVDAGGMQALAMHLGNMSPRLVQNCLWTLRNLSDAATKVEGLEALLQSLVQVLGSTDVNVVTCAAGILSNLTCNNQRNKATVCQVGGVDALVRTIINAGDREEITEPAVCALRHLTSRHVDSELAQNAVRLNYGLSVIVKLLHPPSRWPLIKAVIGLIRNLALCPANHAPLREHGAIHHLVRLLMRAFQDTERQRSSIATTGSQQPSAYADGVRMEEIVEGTVGALHILARESHNRALIRQQSVIPIFVRLLFNEIENIQRVAAGVLCELAADKEGAEIIEQEGATGPLTDLLHSRNEGVATYAAAVLFRMSEDKPQDYKKRLSIELTNSLLREDNNIWANADLGMGPDLQDMLGPEEAYEGLYGQGPPSVHSSHGGRAFHQQGYDTLPIDSMQGLEISSPVGGGGAGGAPGNGGAVGGASGGGGNIGAIPPSGAPTSPYSMDMDVGEIDAGALNFDLDAMPTPPNDNNNLAAWYDTDC
As to B1, the percent of binding lost relative to UbxIb Pro4 is 60%.

B2: Cap-binding protein 1 (natural protein)
chain: MSRRRAHDTEDEGYDHRRNKRRRVSENQEIEDRLESLILRVGERSTSSVESNLEGLVSVLEADLGTFRLKILRILSDCAVRMPEKCTVYTTLVGLLNAKNYKFGGEFVDHMVKTFKESLKMCRWDAARYSLRFLADLVNCHVISATSLLQLLDTMIDVSNEDTVPQVRRDWFVFAVLSTLPWVGRDLYEKKESALESLLLRIEVYLNKRSKKHHNALRVWSSDAPHPQEEYLDCLWAQIRKLRQDNWAEKHIPRPYLVFDSILCEALQHNLPTIVPPPHHDNFEYPMPWVVYRMFDYTDCPDGPNLPGAHSIERFLIEEHLHHIIETYHHERKDCAAQLLSFPYKHKIPLEYCIVEVVFAELFHMPTPRYLDICYGSILIELCKLQPATLPQVLAQATEILFMRIDSMNTSCFDRFVNWFSYHLSNFKFTWSWDEWDSCLLLDGEHPRPKFIQEVLQKCLRLSYHQRITEMMPTTYAKLIPLTPVPNYKYANEEAANLPGTTVAHQLVVAIRQKCTPEEVVNILKDIPNSGYSGEEMSDGSFNALKIDVFVQTLLNLGSKSFSHSFAAISKFHSVFRALAETEEAQICILHNIFELWSSHQQMMVVLIDKLLKLQIVDCSAVATWIFSKEMTGEFTKLYLWEILHLTIKKMNKHVIKLNTELSEAKEKLAKADSSSSDSEDDSSHKRKKPITHADKPSEEVVERMEEKLEAANVNQKRLFLIVFQRFIMILSEHLLRSDTDGRDPDTDWYRWTIGRLQQVFLMHHEQVQKYSSTLETLLFTSDLDTHILEVFQQFVALRA
B2 had a percent of binding lost relative to UbxIb Pro4 of 85%.
